From US20240166765A1 (ICONIC THERAPEUTICS, published 2024)

B1: 39A (antibody, human IgG1, V domains shown)
VH: QVQLVQSGAEVKKPGSSVKVSCKASGGTFSSNAIGWVRQAPGQGLEWMGSIIPIIGFANYAQKFQGRVTITADESTSTAYMELSSLRSEDTAVYYCARDSGYYYGASSFGMDVWGQGTTVTVSS
VL: EIVMTQSPATLSVSPGERATLSCRASQSVSSNLAWYQQKPGQAPRLLIYGASTRATGIPARFSGSGSGTEFTLTISSLQSEDFAVYYCEQYNNLPLTFGGGTKVEIK
B2: TF-011 (antibody, V domains shown)
VH: EVQLLESGGGLVQPGGSLRLSCAASGFTFSNYAMSWVRQAPGKGLEWVSSISGSGDYTYYTDSVKGRFTISRDNSKNTLYLQMNSLRAEDTAVYYCARSPWGYYLDSWGQGTLVTVSS
VL: DIQMTQSPPSLSASAGDRVTITCRASQGISSRLAWYQQKPEKAPKSLIYAASSLQSGVPSRFSGSGSGTDFTLTISSLQPEDFATYYCQQYNSYPYTFGQGTKLEIK
B3: TF-011 (antibody, V domains shown)
VH: B2 VH
VL: B2 VL
B4: 5G9 (humanized TF8-5G9, CNTO 860) (antibody, V domains shown)
VH: QVQLVESGGGVVQPGRSLRLSCKASGFNIKDYYMHWVRQAPGKGLEWIGLIDPENGNTIYDPKFQGRFTISADNSKNTLFLQMDSLRPEDTAVYYCARDNSYYFDYWGQGTPVTVSS
VL: DIQMTQSPSSLSASVGDRVTITCKASQDIRKYLNWYQQKPGKAPKLLIYYATSLADGVPSRFSGSGSGTDYTFTISSLQPEDIATYYCLQHGESPYTFGQGTKLEIT
B5: 5G9 (humanized TF8-5G9, CNTO 860) (antibody, V domains shown)
VH: B4 VH
VL: B4 VL

Legend:
[1] = biological target: Relipidated TF (Tissue Factor) (UniProt P13726 33-295, limits assumed); assay: cell-based or functional assay
Relipidated TF = Relipidated TF (UniProt P13726 33-295, limits assumed); assay: cell-based or functional assay

Binder | % ETP, Ab 10 nM [1] [%] | % Peak IIa, Ab 10 nM [1] [%] | % Peak IIa, Ab 50 nM [1] [%] | % Peak IIa, Ab 100 nM [1] [%] | % ttPeak, Ab 10 nM [1] [%] | % ttPeak, Ab 50 nM [1] [%] | % ttPeak, Ab 100 nM [1] [%] | ETP [nM · min], Ab 10 nM [1] [nM·min] | Lag Time [min], Ab 10 nM [1] [min] | Lag Time [min], Ab 50 nM [1] [min] | Lag Time [min], Ab 100 nM [1] [min] | Peak IIa [nM], Ab 10 nM [1] [nM] | Peak IIa [nM], Ab 50 nM [1] [nM] | Peak IIa [nM], Ab 100 nM [1] [nM] | ttPeak [min], Ab 10 nM [1] [min] | ttPeak [min], Ab 50 nM [1] [min] | ttPeak [min], Ab 100 nM [1] [min] | % Peak IIa, TGA […] min pre-incubation, 50 nM Ab (Relipidated TF) [%] | further results
B1 | 84 | 37 | 11 | 9 | 135 | 397 | 465 | 1690 | 10.8 | 29.8 | 34.7 | 122 | 36 | 29 | 18.6 | 39.3 | 44.6 |  | 
B2 |  |  |  |  |  |  |  |  |  |  |  |  |  |  |  |  |  | 10 | 
B3 | 85 | 47 | 12 |  | 86 | 284 | 353 | 1710 | 8 | 21.3 |  | 156 | 39 | 30 | 14.7 | 30.3 | 35.8 |  | 
B4 |  |  |  |  |  |  |  |  |  |  |  |  |  |  |  |  |  | 8 | % Peak IIa, TGA […] min pre-incubation, 10 nM Ab (Relipidated TF): 11%; % Peak IIa, TGA […] min pre-incubation, 100 nM Ab (Relipidated TF): 8%; % ttPeak, TGA 10 min pre-incubation, 10 nM Ab (Relipidated TF): 314%; % ttPeak, TGA 10 min pre-incubation, 50 nM Ab (Relipidated TF): 386%; % ttPeak, TGA 10 min pre-incubation, 100 nM Ab (Relipidated TF): 436%; Lag Time, TGA 10 min pre-incubation, 10 nM Ab (Relipidated TF): 19.3 min; Lag Time, TGA 10 min pre-incubation, 50 nM Ab (Relipidated TF): 23.6 min; Lag Time, TGA 10 min pre-incubation, 100 nM Ab (Relipidated TF): 26.7 min; Peak IIa, TGA […] min pre-incubation, 10 nM Ab (Relipidated TF): 30 nM; Peak IIa, TGA […] min pre-incubation, 50 nM Ab (Relipidated TF): 23 nM; Peak IIa, TGA […] min pre-incubation, 100 nM Ab (Relipidated TF): 22 nM; ttPeak, TGA 10 min pre-incubation, 10 nM Ab (Relipidated TF): 29 min; ttPeak, TGA 10 min pre-incubation, 50 nM Ab (Relipidated TF): 34 min; ttPeak, TGA 10 min pre-incubation, 100 nM Ab (Relipidated TF): 37.5 min
B5 | 58 | 24 | 8 | 8 | 135 | 338 | 401 | 1180 | 10.4 | 25.1 | 29.9 | 79 | 28 | 27 | 18.6 | 34.6 | 39.6 |  | 
